# Experimental data as given in the DeepSol protein solubility set.
# Experiment: soluble on expression in E. coli; label from the status in PepcDB or PDB records
row,Sequence,soluble on expression in E. coli
1,MPSIRLADLAQQLDAELHGDGDIVITGVASMQSAQTGHITFMVNPKYREHLGLCQASAVVMTQDDLPFAKSAALVVKNPYLTYARMAQILDTTPQPAQNIAPSAVIDATAKLGNNVSIGANAVIESGVELGDNVIIGAGCFVGKNSKIGAGSRLWANVTIYHEIQIGQNCLIQSGTVVGADGFGYANDRGNWVKIPQIGRVIIGDRVEIGACTTIDRGALDDTIIGNGVIIDNQCQIAHNVVIGDNTAVAGGVIMAGSLKIGRYCMIGGASVINGHMEICDKVTVTGMGMVMRPITEPGVYSSGIPLQPNKVWRKTAALVMNIDDMSKRLKSLERKVNQQD,soluble
2,MPSSSPSMDESRRSAVPPKEPAGRICTVCSDRANGYNFGVLTCESCKAFFRRNASKHKEIKCPFSDSCQITSASRKFCQACRLNKCFAVGMNSEWLNDLKPKSSIVSGKFKRKKPDMKNNLKVEVDDTEEDLENDDEEQISVPKALLEKLINKANEKSKDRCTCKCQCGFYPITQRLTAYEPKDTTAVNSPQDISFSHHLHHSDSFYSSSTSTLSPMSVISCAPSSHDSSGYNTSQLVTQSPTNYTVSPASIPSSITELSPQMPSQYPPMLSPFQFGVMAQMAAPANFLNFPPMPERTWTPIQAVSTVPVTETLPPNLLEQIHSKIDKYIGVLNEDEITLLEELHVQNEPLNAPLIQWHNPKSIDGVFRIIEEALRRIVNMACQLSLFRELHVDDRKNLLKSGFGELLIVRGLMAYDKSDNSWNHSFGVRGKMEVKVEVLKNPKLEEHYKAHMNLLSTFGEDVRNNEHLMLIFNAAVIFHPHVSNLRDSKRVHSTQAKYFQMLLKLLTFEYGKSRADIAYSNLLNQVVELHRVNRTLLRVFYGLDIAQLDPLIRELCSFE,not soluble
3,MPTITLRLELHNPTKVKQDMYERMTEVNTAFANWLLNHPELNQATSKIFKEFSPQRFPSAVVNQTIREVKSQKKNQKTKKFRTFWCCFNNQNVKVEKKGAFYTVSFPTLEKRIGVPVVTRPYQEAWLNRLLDGTAKQGAAKLYKKRTKWYLAIAITFEVKPRHETKVMGVDLGLRYIAVASVGTKSLFFKGSQCAFIRRRYAALRRTLGKAKKLQMIRKIGRKESRWMKDQNHKISRQIVNVALANGVGVIRMEALTGIRKRAKSAKEAGRSLHSWAFHQLQTMIAYKAEMAGIRVEWVKPTYTSQTCKCGHREKGNRNGIHFQCKQCGYTLHADLNGAINIAKAISGFVAEPSALVTGAPPIGVHRNPMGRGDDTPLNLGVVRTRNG,not soluble
4,MPVAATNSETAMQQVLDNLGSLPSATGAAELDLIFLRGIMESPIVRSLAKAHERLEETKLEAVRDNNLELVQEILRDLAQLAEQSSTAAELAHILQEPHFQSLLETHDSVASKTYETPPPSPGLDPTFSNQPVPPDAVRMVGIRKTAGEHLGVTFRVEGGELVIARILHGGMVAQQGLLHVGDIIKEVNGQPVGSDPRALQELLRNASGSVILKILPSYQEPHLPRQVFVKCHFDYDPARDSLIPCKEAGLRFNAGDLLQIVNQDDANWWQACHVEGGSAGLIPSQLLEEKRKAFVKRDLELTPNSGTLCGSLSGKKKKRMMYLTTKNAEFDRHELLIYEEVARMPPFRRKTLVLIGAQGVGRRSLKNKLIMWDPDRYGTTVPYTSRRPKDSEREGQGYSFVSRGEMEADVRAGRYLEHGEYEGNLYGTRIDSIRGVVAAGKVCVLDVNPQAVKVLRTAEFVPYVVFIEAPDFETLRAMNRAALESGISTKQLTEADLRRTVEESSRIQRGYGHYFDLCLVNSNLERTFRELQTAMEKLRTEPQWVPVSWVY,soluble
5,MPYLNCDTITGDFHFQMIRFARAMEVGDKLTMKGKIMNPANMSYLHLYQGFNSVYEKSPLSLHIRVQYLRNSIIYNSWFGSWGGEQFSQQPFLSGNYYSISVLKGPTYYSIYMGNLLITKYAFRNPANWQIGNLLGYGDWTVTSVSMTCVRPGVPTTPDPKATTTPTPTTTKAQNIIAEDPNGGQLGGGELVVTNPGSVGSGSGNSGNSSNNNNSSGNSNYGSNNSGSGNGNSNSGNGNSGNGNGNNAGNSGNGNGNSNGNNGNGSNGNGNGNNGNGNNGNNGNGHPQYPYPVPPHGYYPPGYPYPPGYPYPPPGAFYYPPGGIPQNGMNGQNGNGQPNIIVINSGGNKKRNRGGNLRPQFDVDLDGDEDEEC,not soluble
6,MQAQNMTEASTVHVEHDPVRQRFNVDTDGHRAELAYRREGEIMTITHTQVPDAVSGRGIAAALVEDALAFARQHGLKVVPACRYADAYVRRHPRYQDLLAMAGDPLEHHHHHH,not soluble
7,MQAWFMDDSNEDQRLPHHRNPKELVSLDYLAELGVLYWKLNPENYENDSELSKIREDRGYDYMDLLDLCPEKVSNYEEKLKNFFTEHIHKDEEIRYCLAGSGYFDVRDKDDRWIRIWMQPGDLIVLPAGIYHRFTLDASNYIKLMRLFVGEPVWTPYNRPQEEHPVRKKYIHGLTYKFGETVKAH,soluble
8,MQDIWRLPATELADLVRSRRVSAREVAEAALHRLDAVNPAINAVVDHKADDALTQADAVDAAFAKGETPGVLAGVPVTVKVNVDQQGFATTNGVTLQRDWIAKTNNPVVDNLRKAGAVIIGRTNTPAFSYRWFTSNKLHGETLNPRDPSITPGGSSGGAAAAVAAGIGAIAHGTDIAGSVRYPAYACGVHGLRPTIGRVAAFNASSPERPICPQISAVSGPLARTIADVRLGLQALAQPDARDPWWVPAPLDGPPRDKRAALCIAPDDLAVVRAVRDALKDAARRLEAAGWVVDEIASTPPLREAAELQAQFWLGDGYQAMLDAAEREGDEGALACLHGNRDKAIGDLASYSKLLTRRATLTRDWQTFFETYAVLLTPVCGELPFPQRLDLKDEESFKRVWAAQMPQVGLPFMGLPALTVSTGMVGRVPVGVQVVSGRYREDLCLLAGEAIEA,not soluble
9,MQDKCMMRPLSNPLTEAYNVQNLYQCLNCDDYHLCNGSLNCDPLVDREGIVCTVTGKYIQCNVRELEHHHHHH,not soluble
10,MQDNSTKYLLYIQTATSNHLETNCVFLHCDYILKVPINKLVSYYAKLHLSSQSVLIETAKNILNINKLVPIYINPKTILFPLKHKRAPIQIYINAHYIVGMTAIENSTLIHFQEGIQLEVDEPFSLVSKKCHESLALKHFIENTISNLEHHHHHH,not soluble
11,MQDRIFAFTPKGSLFQLPKGATPIDFAFAVHTNLGAQAVGAKINGRHVPLRTPLGNGDVVEIIKSRTSEPQLEHHHHHH,not soluble
12,MQDTDFFSWRRTMLLRFQRMEAAEEAYHEIELQAQQLEYDYYSLCVRHPVPFTRPKVAFYTNYPESWVSYYQAKNFLAIDPVLNPENFSQGHLMWNDDLFSEAQPLWEAAHAHGLRRGVTQYLMLPNRALGFLSFSRCSTREIPILSDELQLKMQLLVRESLMALMRLNDEIVMTPEMNFSKREKEILKWTAEGKTSAEIAMILSITG,not soluble
13,MQDYTVHIVDDEEPVRKSLAFMLTMNGFAVKMHQSAEAFLAFAPDVRNGVLVTDLRMPDMSGVELLRNLGDLKINIPSIVITGHGDVPMAVEAMKAGAVDFIEKPFEDTVIIEAIERASEHLVALE,soluble
14,MQEEVNQKVISLSIQGVKITASVLKAALRKFLEMDNRRKQKATQVKMAEKTGRAQEKGREKARKKIEKKKPHGKQTIKQLNAQGVQLSNLKITDENVKSFDRVARKYGIDYSLKKEVGADPPKYLVFFKAKDVDVMTAAFREYAGVELKKKQVKKPSVRKKLQKSVERKAKNRQRVKQRQKSRGQER,not soluble
15,MQEGLVVVESCPRLGWAMESPENGTRQTAYEIEIREAFTGRSVWNSGKVTSSQSQLVPTEGADICLNNPFNYSWRVRVWDETDTPSEWSQEAKFRLASDDLSSGKWIGAITRKDSHLPEGRKFHGGELKKPEVKAAWEAVDTLAKKSICLRRTFQTGEAKGKNANRKSGKKIVEATAYVCGLGFYEFSLNGKKIGDSEFAPLWSDYDKSVYYNTYDVTEQLQDGENVVGILLGNGFYNVQGGRYRKLQISFGPPTLLFELVINYEDGTRETIRSDHEWKYDLSPITFNCIYGGEDYDARREQKGWNQVGFNDSHWRPVVVQEAPKGVLRSQMAPPVKIMERYDIQKVTKLNSEQVMAASKSTKRTVDPSAVVLDMGQNLAGFPEITVRGKRGQKVTLIVAEALMDEGACNQRQTGRQHYYEYTLKGEGDEIWHPRFSYYGFRYIQVEGAVLKGQKNPQKLPVLKNIQSCFIYNSAKKVSTFESSNRIFNAAHRLIEKAVRSNMQSVFTDCPHREKLGWLEQVHLNGPGLLYNYDLTAYAPQIMQNMADAQHPNGAMPTTAPEYVVFEGPGMDAFAESPEWGGSLVIFPFMYYETYGDDSLIKKYYQHMRRYTDYLKTRADNGILSFGLGDWYDYGDFRAGFSRNTPVPLVATAHYYMTVMYLIKAARMVGNEFDVRYYSSLAYDIMVAFNKRFLDSNTAQYGTGSQASNALPIFLQMIQSTGDKGDYTPDASLAAKVLTNLIKDVESHGNRLTTGDVGNRYLIQTLARNGQHELIYKMFNHEEAPGYGFQLKFGATTLTEQWDPRQGSSWNHFMMGQIDEWFFNSLIGIRPSTTLSASVNEKDEPMQGYQKFVIAPKPVGDLKYVKSTYETLYGTILVDWTRQSGTFTLNVSVPVNTTAIVYLPGEKEPKEVQSGTYKFVAAE,not soluble
16,MQEYSVEVALVHPDDMVNLFGSNERHLKLIEENLGVVIHARTERVQILGETEEAIELARLTIKALLVLVGRGMIVNTSDVVTALSMAQNGNIDKFVALYEEEIIKDSYGKPIRVKTLGQKVYVDSVKSHDIVFGIGPAGTGKTFLAVTLAITALKRGQVKRIILTRPAVEAGESLGFLPGDLKEKVDPYLRPVYDALYQILGKEQTSRLMEREIIEIAPLAYMRGRTLDDAFVILDEAQNTTIMQMKMFLTRLGFNSKMIVNGDISQIDLPKNVKSGLVDASEKLKDIKQIDFVYLSAKDVVRHPVVAEIINAYEESTDVR,not soluble
17,MQEYTNHSDTTFALRNISFRVPGRTLLHPLSLTFPAGKVTGLIGHNGSGKSTLLKMLGRHQPPSEGEILLDAQPLESWSSKAFARKVAYLPQQLPPAEGMTVRELVAIGRYPWHGALGRFGAADREKVEEAISLVGLKPLAHRLVDSLSGGERQRAWIAMLVAQDSRCLLLDEPTSALDIAHQVDVLALVHRLSQERGLTVIAVLHDINMAARYCDYLVALRSGEMIAQGTPAEIMRGETLEMIYGIPMGILPHPAGAAPVSFVY,not soluble
18,MQFSTTPTLEGQSIVEYCGVVTGEAILGANIFRDFFAGIRDIVGGRSGAYEKELRKAREIAFQELGEQAKALGADAVVGIDIDYETVGKDGSMLMVSVSGTAVKTRR,not soluble
19,MQFYRRLTAIKAISFDLDDTLYNNRPIMQSVEQQMAHYFTEKFAILLPELLVEPKQVFNRRFWAPYRQQAIKAHQDISHDVVRLRFESYRLGLLAHNLSAEAARKEAQAGLDYFINLRSDFTVPKESHELLASLSKAFPLVSISNGNVDTRALGIDHYFQHIYHAGFQTGNCHDESEHLLKQKPETDMFSLVCQQLDILPEQLLHVGDCGFADIHGALNAGCQTAWLPQYGVGKSLQQIPHIELSLVSDLSQLIRKA,not soluble
20,MQGVPSNEPMLGQLTDNGRAAEAGLKEGDYIQSINGEKMRSWTDIVSAVKENPEKEMDVAVKRDNKTLHISVTPEAVKDENKKTIGRFGSYAPTEKGVLSAVAYGATSTVDVTKAILTNLSKLVTGQFKLDMLSGPVGIYDMTDQVAKTGI,not soluble
21,MQGVQEQIEELQTKLAFQELTVEELNQEVIKLNQLVAHQQHQIQLLIGKLQAIEPSNMATQAEETPPPHY,soluble
22,MQIDFNSDMGESFGAWTIGDGVDTELMAFISSANIATGFHAGDPSTMRRTIEQAKRLGVAIGAHPGFRDLVGFGRRHINAPAQELVDDMLYQLGALRELARVQGVPLQHFKPHGALYMHLARDEEAARLLVENLQRLEPDLLLYCMPGSVICNVAQELGQPVVREFYADRAYDLSGSIVFTRNVRAHDPAEVAARVIRACQQGLVRTVEGDDLAIQFDSICLHSDTPGALALAQATRQALDGAGIEVRTPRLEHHHHHH,not soluble
